Assay results from patent US12269859B2, “Synthetic immune receptors and methods of use thereof” (Angeles Therapeutics, Inc., priority 2016, dated 2025).

B1: 112916-C01 (protein)
chain: MALPVTALLLPLALLLHAARPDVVMTQTPLTLSVTIGQPASISCKSSQSLLDSDGKTYLHWLLQRPGQSPKRLIFLVSKLDSGVPDRFTGSGSGTDFTLKISRVEAEDLGVYYCWQGTHFPQTFGGGTKLEIKLEGKPIPNPLLGLDSTGSGEDLKNVFPPEVAVFEPSKAEIAHTQKATLVCLATGFYPDHVELSWWVNGKEVHSGVCTDPQPLKEQPALNDSRYCLSSRLRVSATFWQNPRNHFRCQVQFYGLSENDEWTQDRAKPVTQIVSAEAWGRADCGITSASYHQGVLSATILYEILLGKATLYAVLVSALVLMAMVKRKDSRGRAKRSGSGATNFSLLKQAGDVEENPGPTSMDWIWRILFLVGAATGAHSFEVQLQESGPDLVKPSQSLSLTCTVTGYSITSGYSWHWIRQFPGNKLEWMGYIHYSGDTDYNPSLKSRFSITRDTSKNQFFLQLNSVTTEDTATYYCATPGGFVYWGQGTLVTVSSTREQKLISEEDGSGIQNPDPAVYQLRDSKSSDKSVCLFTDFDSQTNVSQSKDSDVYITDKCVLDMRSMDFKSNSAVAWSNKSDFACANAFNNSIIPEDTFFPSSDVPCDVKLVEKSFETDTNLNFQNLSVIGFRILLLKVAGFNLLMTLRLWSSRAKRSGSGVKQTLNFDLLKLAGDVESNPGPSRGHMTEYKPTVRLATRDDVPRAVRTLAAAFADYPATRHTVDPDRHIERVTELQELFLTRVGLDIGKVWVADDGAAVAVWTTPESVEAGAVFAEIGPRMAELSGSRLAAQQQMEGLLAPHRPKEPAWFLATVGVSPDHQGKGLGSAVVLPGVEAAERAGVPAFLETSAPRNLPFYERLGFTVTADVEVPEGPRTWCMTRKPGA
modifications: Polynucleotide encoding a Synthetic Immune Receptor (SIR)
B2: 010417-U02 (protein)
chain: MALPVTALLLPLALLLHAARPLEGKPIPNPLLGLDSTGSGEDLKNVFPPEVAVFEPSKAEIAHTQKATLVCLATGFYPDHVELSWWVNGKEVHSGVCTDPQPLKEQPALNDSRYCLSSRLRVSATFWQNPRNHFRCQVQFYGLSENDEWTQDRAKPVTQIVSAEAWGRADCGITSASYHQGVLSATILYEILLGKATLYAVLVSALVLMAMVKRKDSRGRAKRSGSGATNFSLLKQAGDVEENPGPTSMALPVTALLLPLALLLHAARPDQIVLTQSPAIMSASPGEKVTISCSASSSVSYMYWYQQKPGSSPKPWIYRTSNLASGVPARFSGSGSGTSYSLTISNMEAEDAAAYYCQQYHSYPTTFGGGTKLEVKGGGGSGGGGSGGGGSEVQLVESGGGLVQPKGSLKLSCAASGFSFNTYAMNWVRQAPGKGLEWIAHIRSKSNNFATYYADSVKDRFSISRDASENILFLQMNNLKTEDTAMYYCVRQGGDFPMDYWGQGTSVTVSSTREAAAKEIVLTQSPATLSLSPGERATLSCSASSSVSYMHWYQQKPGQAPRLLIYDTSKLASGIPARFSGSGSGTDFTLTISSLEPEDVAVYYCFQGSVYPFTFGQGTKLEIKRGGGGSGGGGSGGGGSQVQLQESGPGLVKPSQTLSLTCTVSGGSISTSGMGVGWIRQHPGKGLEWIGHIWWDDDKRYNPALKSRVTISVDTSKNQFSLKLSSVTAADTAVYYCARMELWSYYFDYWGQGTLVTVSSTREQKLISEEDGSGIQNPDPAVYQLRDSKSSDKSVCLFTDFDSQTNVSQSKDSDVYITDKCVLDMRSMDFKSNSAVAWSNKSDFACANAFNNSIIPEDTFFPSSDVPCDVKLVEKSFETDTNLNFQNLSVIGFRILLLKVAGFNLLMTLRLWSSRAKRSGSGVKQTLNFDLLKLAGDVESNPGPSRGHMTEYKPTVRLATRDDVPRAVRTLAAAFADYPATRHTVDPDRHIERVTELQELFLTRVGLDIGKVWVADDGAAVAVWTTPESVEAGAVFAEIGPRMAELSGSRLAAQQQMEGLLAPHRPKEPAWFLATVGVSPDHQGKGLGSAVVLPGVEAAERAGVPAFLETSAPRNLPFYERLGFTVTADVEVPEGPRTWCMTRKPGA
B3: 010417-Y05 (protein)
chain: MALPVTALLLPLALLLHAARPLEGKPIPNPLLGLDSTGSGEDLKNVFPPEVAVFEPSKAEIAHTQKATLVCLATGFYPDHVELSWWVNGKEVHSGVCTDPQPLKEQPALNDSRYCLSSRLRVSATFWQNPRNHFRCQVQFYGLSENDEWTQDRAKPVTQIVSAEAWGRADCGITSASYHQGVLSATILYEILLGKATLYAVLVSALVLMAMVKRKDSRGRAKRSGSGATNFSLLKQAGDVEENPGPTSMALPVTALLLPLALLLHAARPDQIVLTQSPAIMSASPGEKVTISCSASSSVSYMYWYQQKPGSSPKPWIYRTSNLASGVPARFSGSGSGTSYSLTISNMEAEDAAAYYCQQYHSYPTTFGGGTKLEVKGGGGSGGGGSGGGGSEVQLVESGGGLVQPKGSLKLSCAASGFSFNTYAMNWVRQAPGKGLEWIAHIRSKSNNFATYYADSVKDRFSISRDASENILFLQMNNLKTEDTAMYYCVRQGGDFPMDYWGQGTSVTVSSTREAAAKEIVMTQSPATLSLSPGERATLSCRASQDISKYLNWYQQKPGQAPRLLIYHTSRLHSGIPARFSGSGSGTDYTLTISSLQPEDFAVYFCQQGNTLPYTFGQGTKLEIKGGGGSGGGGSGGGGSQVQLQESGPGLVKPSETLSLTCTVSGVSLPDYGVSWIRQPPGKGLEWIGVIWGSETTYYNSSLKSRVTISKDNSKNQVSLKLSSVTAADTAVYYCAKHYYYGGSYAMDYWGQGTLVTVSSTREQKLISEEDGSGIQNPDPAVYQLRDSKSSDKSVCLFTDFDSQTNVSQSKDSDVYITDKCVLDMRSMDFKSNSAVAWSNKSDFACANAFNNSIIPEDTFFPSSDVPCDVKLVEKSFETDTNLNFQNLSVIGFRILLLKVAGFNLLMTLRLWSSRAKRSGSGVKQTLNFDLLKLAGDVESNPGPSRGHMTEYKPTVRLATRDDVPRAVRTLAAAFADYPATRHTVDPDRHIERVTELQELFLTRVGLDIGKVWVADDGAAVAVWTTPESVEAGAVFAEIGPRMAELSGSRLAAQQQMEGLLAPHRPKEPAWFLATVGVSPDHQGKGLGSAVVLPGVEAAERAGVPAFLETSAPRNLPFYERLGFTVTADVEVPEGPRTWCMTRKPGA
B4: 092517-H02 (protein)
chain: MALPVTALLLPLALLLHAARPLEGKPIPNPLLGLDSTGSGEDLKNVFPPEVAVFEPSKAEIAHTQKATLVCLATGFYPDHVELSWWVNGKEVHSGVCTDPQPLKEQPALNDSRYCLSSRLRVSATFWQNPRNHFRCQVQFYGLSENDEWTQDRAKPVTQIVSAEAWGRADCGITSASYHQGVLSATILYEILLGKATLYAVLVSALVLMAMVKRKDSRGRAKRSGSGATNFSLLKQAGDVEENPGPTSMALPVTALLLPLALLLHAARPDVVMTQSPSSLSASVGDRVTITCKASEDIYIRLAWYQQKPGKAPKLLIYAATSLETGVPSRFSGSGSGTDFTLTISSLQPEDFATYYCQQYWTTPWTFGGGTKVEIKGGGGSGGGGSGGGGSQVQLQESGPGLVKPSQTLSLTCTVSGYSITIDYTWNWIRQPPGKGLEWIGYITYSGSTDYNPSLKSRVLISVDTSKNQVSLKLSSVTAADTAVYYCARLGRRYALDYWGQGTTVTVSSTREQKLISEEDGSGIQNPDPAVYQLRDSKSSDKSVCLFTDFDSQTNVSQSKDSDVYITDKCVLDMRSMDFKSNSAVAWSNKSDFACANAFNNSIIPEDTFFPSSDVPCDVKLVEKSFETDTNLNFQNLSVIGFRILLLKVAGFNLLMTLRLWSSRAKRSGSGVKQTLNFDLLKLAGDVESNPGPSRGHMTEYKPTVRLATRDDVPRAVRTLAAAFADYPATRHTVDPDRHIERVTELQELFLTRVGLDIGKVWVADDGAAVAVWTTPESVEAGAVFAEIGPRMAELSGSRLAAQQQMEGLLAPHRPKEPAWFLATVGVSPDHQGKGLGSAVVLPGVEAAERAGVPAFLETSAPRNLPFYERLGFTVTADVEVPEGPRTWCMTRKPGA

Tested on: target antigen-expressing cell line
Experiment: Jurkat NFAT-GFP assay, coculture with target cell lines expressing the respective target antigen (summary Table 10A)
Type: cell-based, human
Parameters: key: The signs +/−, +, 2+ etc. after the name of the cell lines indicate the relative degree of positivity on the Jurkat-NFAT-GFP assay as measured by the % GFP positive cells; +: relative degree of positivity on the Jurkat-NFAT-GFP assay as measured by the % GFP positive cells; 2+: relative degree of positivity on the Jurkat-NFAT-GFP assay as measured by the % GFP positive cells
How it was run: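 Jurkat cells carrying an NFAT-driven GFP reporter and lentivirally expressing a SIR were cocultured with antigen-bearing target cells (E:T ~1:2) for about 4–18 h. GFP induction read by flow cytometry as % GFP+ cells, scored positive and graded (+/−, +, 2+) against parental Jurkat-NFAT-GFP cells.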

Molecule | NFAT-GFP ASSAY Positive Cell lines (coculture with L363 cells) | NFAT-GFP ASSAY Positive Cell lines (coculture with U266 cells) | NFAT-GFP ASSAY Positive Cell lines (coculture with HEL cells) | NFAT-GFP ASSAY Positive Cell lines (coculture with NALM6 cells) | NFAT-GFP ASSAY Positive Cell lines (coculture with RAJI cells)
B1 | (+) | U266 (+/−), L363 |  |  | 
B2 |  |  | +/− | + | RAJI (+), NALM6
B3 |  |  | (+), HEL (+) | (+), HEL (+) | RAJI (+), NALM6
B4 |  |  | HEL(+) |  | 
